Tests used:
[1] = molecular target: MtMce4A_(39–140) (Mycobacterium tuberculosis H37Rv); experiment: crystal structure; native protein, 7.5 mg ml^−1; 100 mM sodium HEPES, 100 mM LiCl2, 20% PEG 400 pH 7.5, 22°C; space group P6_(5), 2.9 Å
[2] = molecular target: MtMce4A_(39–140) (Mycobacterium tuberculosis H37Rv); experiment: SEC-MALS; in crystallization buffer (0.1 M MES, 0.7 M ammonium sulfate pH 6.0) after slow heating from 20 to 50°C (0.8°C per minute); supernatant on Superdex 200 10/300

## MtMce4A_(39–140) (domain or fragment)
[1]
  stoichiometry N: 2
[2]
  stoichiometry N: 2

Source: publication PMC8420772
